This data set has as its system CCC(=O)O. Description: purified protein.

This note sets out measurements from publication PMC4441257, “A large genomic island allows Neisseria meningitidis to utilize propionic acid, with implications for colonization of the human nasopharynx” (Molecular Microbiology, 2014).

The Km is the substrate concentration at which the rate is half of its maximum.

Text: hydroxamate assay of propionate kinase activity on NMB0435 (AckA1)

For the substance “NMB0435 (AckA1) (Neisseria meningitidis MC58)”, the Michaelis-Menten constant (Km) was determined as 16.3 ± 2.2 mM.
